Data: the domain aggregation screens of Martell et al. (2025)

Experiment: soluble fraction after stress (log2 fold change); higher = more stays soluble; pooled small domains, quantitative proteomics
Settings: stress: 75 degC
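Also: 20 min heating vs room temperature control held 20 min.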

Sequence | soluble fraction (log2)
HMSQKVQEDFLGDIRKNEIAVTVFLINGVKLQGVITWFDDASILLRRDGHTQLIYKHAVSTIMPGVAVDI | -0.582
HMSQLYINATDDGWVIGNLPADAREVLLTTLGGQVVARYHVTAPSLRVKAPRKGVYIVSVETA | -2.11
HMSQQVVTDGVNLRLRYAPSPDAETYKWADGTNRHPEKGERFPYLGDIGDFYRIDYKGLVLYVSKQHTHL | -2.04
HMSQRITYTEFVQMVKDDKVEKVEVGANQYNITPKSDDKTLVKMTYYTGFIKDENLLDLLNKHKVEIDGYI | -0.792
HMSQSIGQEKALSIALADAGVQKENALGLEVKGEYDDGQLLYEVEFRAGGVEYEYEVRASDGRIVKAERD | 0.0638
HMSQSMEVLYTDLTDKDAAAIVEKLEEEKIPYQLEDQGTTILVPPGVKYTTRLKLAAEDLPKG | 0.0723
HMSQYVPDPVLNAALVGYLDFRKQAGKPMTDYSIRLLLVDLAKLSGNPQEQAAILDQSTKNNWIGVYALG | -3.04
HMSRAARLALDALPDEWAQFAESRGLAGSAMAETWETFRDYWQAQPGQKGVKADWAATWRNWVRRETQNRG | -0.378
HMSRDYKTELQERLQVNGPVKIEYQVIAEDESKPSFKVQLLVNDKKISEGQGRNKKAAEQQAAQAAL | 0.0103
HMSREEFLTELRKALQGRVSQQTVNDNLRYYEEYILTESHKGKTEAEVIAELGNPRLLAKSIIDAENAT | 0.0701
HMSRESNISTGRQLLEAQLPTWGYKKVEDIPSKQMKTALDAFNYKDVESLLQGLGEGSVALTTALRRLMP | -0.095
HMSRFLEGILQRRAGGKNYFVPDDGSNPIFIADRNSAGAANGDRVRIAQFARRPRSGPEGEVVEILKRAK | -0.0772
HMSRGAIVTGTVIEKNQSGIYVDLGYKSDGIVPIEEFDGEESKYNVGDQIRVYVKKVDDGHGQLML | 0.142
HMSRGTRIDPNWQPSPEDRALARAEGFSDPEIDREALQFRDYWLGASGSNAVKLDWSATWRNWVRRAATNF | -0.396
HMSRKERERSQHRRDILAAGEKIFAQKGYFNATIEEIAREAEFSVGTIYNFFSNKETLYQEIIRSI | -0.418
HMSRLQDAELQAQIDKMAGAMQLRDIPVYVQDIPTINGLAAPDGRVFITQGFIDKYKLGEVSAGEIASVI | 0.29
HMSRPLISNMLRLLNLPPTVQRKVAAGVISAGHARALLGLNDEKEIEKLANRIVAEGLSVRATEEIVAIA | -1.62
HMSRWHEFLNKSEDGMKELDEQNQKVLTLLILQRFYQTPFQAKEDEEFYREFFERLSSVNEILG | -0.468
HMSSAYLTVRGIDIDVIYKDIKNLHIAVYPPFGRVRVAAPSHLDDDQVRLAVIQRLTWIKRQRERLRST | -1.62
HMSSDEAEYKLLLGQEGVAKSPLRPSGVVDFSGRRLDVQTLGDFIESGETVVVKQVNGHRVLVERK | 0.135

Sequence | soluble fraction (log2)
HMSSDEEQLATLTRLLQKQEQIIQTLGPRNPMVSLQQYANTITKVIEMAGFKDTSQFINSQIP | 0.0951
HMSSDLESVIGTHSQEANFALRSWGWIQPDETWKNLRPDQVSQILERANEFMAKAIESFANAQSE | -0.141
HMSSDLLGVRVRRARARAGLTRRRLSLLSGVSERFLAQLESGQGNISIVLIRRVAAALGAELVELIGS | -0.555
HMSSEDTQSRDRARKELSNEMSRIMKRYGLDYQPRDNADDIMNRLKAAGADENTLAYVQEKLK | -0.0442
HMSSEITYDKFIEMVDKDQVKEVTLQSGVLTVVPKIQKSYYQNASYKVNQMEDVDALTKRLEGTGIVFHY | 0.322
HMSSEITYDKFIEMVEEGNVKEVTLQSDTLTIKPKHQDSAFSEKEYYTRQMESADQLTERLEGTGIEFHS | 0.119
HMSSEQRSVLFPNLAETDKVAVIEALMAAGVNARVDSASGRVTVPSGDYYNSRAILAAQGLPTS | 0.0148
HMSSETTVPAVVGIKEDKARQLASEQGLRLRVKSREESADVEEGIIISQDPNSNTKVKKGDEIEVVVS | 0.102
HMSSFSESFHKALNNLDDKHKSVFSLRHFEGFSMKEIAETLNINEGTVKSRLFYATKTLAGALKEF | -3.45
HMSSGKTGTITLQPKQTVYGITKQYKISEADLRKLNPQLDSNLKIGDKITLPLDNIQRYSDSSSNVAQT | 0.0568
HMSSGLLTVQEQRILEHLANGERNGDIAGRLHISEGTVKWHLHNMYRKLDAATRTQAVARARALRL | 0.36
HMSSIGERISDVRKARGYTQDQLAERIHVSRQTISHWENERALPDFESIKQLSQVLGYDFSS | -0.123
HMSSIHQDAKQQLHEYIRTYIQPLMRAGKQVTVWDIIGHVTIRKPKLVQKIGTQQLINMVQDLLE | -0.624
HMSSKSDQLYLQLRRRISAMKDGEPFPTVRQLMTEYQVSQSTVTPAINQLKEKGLIEAYVGRGSFVSKK | -0.657
HMSSKTKVEDLGLSTRTLNALIGGSIKTAGGLTRKSESDLLSLDGLGEKGITEIKEALENIGLSLK | 0.103
HMSSLKKISIDELSPGMYVHSIVEQKGSVKIKSQGKVLKQAVVDALRKRGVKTLLIDLSKQFNPETGEP | -0.985
HMSSLTPRETEVLSRMAQGDANTSIAERLVITEKAVQKHINAIFAKLGLAEEPTSARRVLAVLAFLR | -0.539
HMSSLTQREYEIAELVADGLSNKAIAAELSISHTTAARHVANIMNKLGFNSRSQIAAWVADRAQG | 0.0373
HMSSNLSLHKEGNKIVILGLEGKSVIEVYDLMGRLLSSQTNYNPKQEITLLQPVIIRVTDTQQTKSFKV | -1.5
